From patent publication US20160257732A1 (published 2016)
Substitutions are numbered along the chain they refer to. Like-named read-outs stand apart in the source and are kept apart here.

B1: Antibody 5 (antibody, V domains shown)
VH: QVQLQQSGPGLVKPSQTLSLTCAISGDRVSSNSAVWNWIRQSPSRGLEWLGRTYYRSKWYYDYAESVKSRIVIDPDTSKNQVSLQLNSVTPEDSAIYYCARGGHITVFGLNIDAYDIWGQGAMVTVSS
VL: DIQMTQSPSSLSASVGDRVTISCRAQSLSSYLHWYQQKPGQPPKLLIYAATTLQSGVPSRFSGSGSGTDFTLTISTFQAEDVATYYCQQSRTFGQGTKVEIK
B2: Antibody 6 (antibody, V domains shown)
VH: B1 VH with V107E
VL: B1 VL
B3: Antibody 8 (antibody, V domains shown)
VH: QVQLQQSGPGLVKPSQTLSLTCVISGDTVSSNRATWNWMRQSPLRGLEWLGRTYYRSKWYNDYAVSVKSRVVINPDTSKNQVSLQLNTVTPDDSGVYFCARGGHITVFGVNIDAFDIWGLGTKVTVSS
VL: DIQMTQSPSSLSASVGDRVTISCRASQRLNSYLHWYQQTPGQAPKLLIYATSTLQSGVSPRFSGSGSGTDFTLTISSLQPEDVATYYCQLSRTFGHGTKVEIK
B4: Antibody 3 (antibody, V domains shown)
VH: QVQLQESGPGLVKPSQTLSLTCAISGDSVSSNNAVWNWIRQSPSRGLEWLGRTYYRSKWYNDYAESVKSRITVNPDTSKNQFSLHLKSVTPEDTAVFYCVRSGHITVFGVNVDAFDMWGQGTMVTVSS
VL: DIQMTQSPSSLSASVGDRVTITCRTSQSLSSYLHWYQQKPGKAPKLLIYAASSLQSGVPSRFSGSGSGTDFTLTISSLQPEDFATYYCQQSRTFGQGTKVEIK
B5: Antibody 11 (antibody, V domains shown)
VH: B4 VH with E6Q, N32Y, K58G, V73I, H85Q, K87N, F97Y, V100A
VL: B4 VL with L33T, L54R, Q55L
B6: Antibody 14 (antibody, V domains shown)
VH: B4 VH with E6Q, V73I, H85Q, K87N, F97Y, V100A, M123T
VL: B4 VL with L33T, L54R, Q55L
B7: Antibody 13 (antibody, V domains shown)
VH: B4 VH with E6Q, N32Y, K58G, V73I, H85Q, K87N, F97Y, V100A
VL: B4 VL with L33D, L54R, Q55L
B8: Antibody 15 (antibody, V domains shown)
VH: B4 VH with E6Q, V73I, H85Q, K87N, F97Y, V100A, M123T
VL: B4 VL with L33T, L54R, Q55G
B9: Antibody 10 (antibody, V domains shown)
VH: QVQLQQSGPGLVKPSQTLSLTCAISGDSVSSNSATWNWIRQSPSRGLEWLGRTYYRSKWYNDYADFLKRRITINPDTSNNEVSLRLTSVTPDDTALYYCARGGHITVFGVNIDAFDVWGQGTMVTVSS
VL: B4 VL with V19I, T22S, S30R, A51S, S53T, S77N, Q90L
B10: Antibody 12 (antibody, V domains shown)
VH: B4 VH with E6Q, N32Y, K58G, V73I, H85Q, K87N, F97Y, V100A
VL: B4 VL with L33T, L54R, Q55G

Experiments:
Test in all cases: cell-based or functional assay
[1] = target: HA of ca A/Wuhan/359/95 (H3N2) (influenza A virus)
[2] = target: T1, HA of A/Puerto Rico/8/34 (H1N1) (influenza A virus, UniProt P03452 18-565)
T1 sequence (P03452 18-565 limits assumed): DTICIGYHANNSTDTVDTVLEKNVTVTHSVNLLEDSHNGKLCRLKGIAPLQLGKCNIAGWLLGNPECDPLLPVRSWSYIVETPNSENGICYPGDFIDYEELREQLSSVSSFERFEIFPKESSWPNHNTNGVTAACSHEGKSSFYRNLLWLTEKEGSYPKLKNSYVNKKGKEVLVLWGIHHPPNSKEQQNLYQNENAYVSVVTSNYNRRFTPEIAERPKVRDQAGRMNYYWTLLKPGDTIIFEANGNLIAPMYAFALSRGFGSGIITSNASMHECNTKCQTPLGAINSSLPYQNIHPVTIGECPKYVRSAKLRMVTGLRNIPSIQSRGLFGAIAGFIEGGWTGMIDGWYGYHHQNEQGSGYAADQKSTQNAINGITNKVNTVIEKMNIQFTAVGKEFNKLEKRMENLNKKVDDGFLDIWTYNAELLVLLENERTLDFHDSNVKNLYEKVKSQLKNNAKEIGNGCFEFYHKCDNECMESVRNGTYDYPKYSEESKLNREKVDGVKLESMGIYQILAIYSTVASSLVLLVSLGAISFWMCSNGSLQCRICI

[3] = target: HA of ca A/Wuhan/359/95 (H3N2) (influenza A virus); remark: listed apart in the source
[4] = target: T1, HA of A/Puerto Rico/8/34 (H1N1); remark: listed apart in the source
rHK68_I18R H3 HA = rHK68_I18R H3 HA (influenza A virus)
rHK68_I45N H3 HA = rHK68_I45N H3 HA (influenza A virus)
rHK68_K156Q H3 HA = rHK68_K156Q H3 HA (influenza A virus)
rHK68_D19Y H3 HA = rHK68_D19Y H3 HA (influenza A virus)
rHK68_D19N H3 HA = rHK68_D19N H3 HA (influenza A virus)
rHK68_Q42R H3 HA = rHK68_Q42R H3 HA (influenza A virus)
rHK68_I45T H3 HA = rHK68_I45T H3 HA (influenza A virus)
rHK68_A196T H3 HA = rHK68_A196T H3 HA (influenza A virus)

Binder | Neutralization IC50, H3-WH95 [1] [µg/mL] | Neutralization IC50, H1-PR34 [2] [µg/mL] | Neutralization IC50, H3-WH95 [3] [µg/mL] | Neutralization IC50, H3-WH95-OR [3] [µg/mL] | Neutralization IC50, H1-PR34 [4] [µg/mL] | Neutralization IC50, H1-PR34-OR [4] [µg/mL] | also measured
B1 | 3.72 | 1.13 | – | – | – | – | –
B2 | 10.5 | 4.37 | – | – | – | – | –
B3 | > 50 | 3.02 | – | – | – | – | –
B4 | 3.96 | 1.07 | 5.63 | 7.7 | 2.17 | 1.39 | –
B5 | – | – | 2.45 | 2.26 | 0.88 | 0.73 | –
B6 | – | – | 2.77 | 3.09 | 1.25 | 0.83 | –
B7 | – | – | 2.77 | 3.01 | 1.3 | 0.88 | –
B8 | – | – | 3.32 | 3.48 | 1.47 | 0.9 | –
B9 | 8.7 | 2.15 | – | – | – | – | –
B10 | – | – | 2.09 | 2.34 | 1.07 | 0.69 | Avg. Neut., microneutralization (rHK68_I18R H3 HA): > 200 µg/mL; Avg. Neut., microneutralization (rHK68_I45N H3 HA): 1.94 µg/mL; Avg. Neut., microneutralization (rHK68_K156Q H3 HA): 3.33 µg/mL; Avg. Neut., microneutralization (rHK68_D19Y H3 HA): > 200 µg/mL; Avg. Neut., microneutralization (rHK68_D19N H3 HA): 3.04 µg/mL; Avg. Neut., microneutralization (rHK68_Q42R H3 HA): 11.1 µg/mL; Avg. Neut., microneutralization (rHK68_I45T H3 HA): 3.38 µg/mL; Avg. Neut., microneutralization (rHK68_A196T H3 HA): 4.06 µg/mL
